Experimental data published in patent publication US20070298494.

Experiment: BS3 chemical cross-linking in solution, SDS-PAGE, silver stain; association of the peptide with itself

B1: N-K4-M2GlyR (peptide)
chain: KKKKPARVGLGITTVLTMTTQSSGSRA
For B1, the number of aggregates was “SEQ ID No. 3 comprised 12 or more aggregates”.
